Experimental data published in IntAct's records for PubMed 19666485.

B1: Chromodomain-helicase-DNA-binding protein 1-like (Homo sapiens), Q86WJ1-1 (parent)
chain: MERAGATSRGGQAPGFLLRLHTEGRAEAARVQEQDLRQWGLTGIHLRSYQLEGVNWLAQRFHCQNGCILGDEMGLGKTCQTIALFIYLAGRLNDEGPFLILCPLSVLSNWKEEMQRFAPGLSCVTYAGDKEERACLQQDLKQESRFHVLLTTYEICLKDASFLKSFPWSVLVVDEAHRLKNQSSLLHKTLSEFSVVFSLLLTGTPIQNSLQELYSLLSFVEPDLFSKEEVGDFIQRYQDIEKESESASELHKLLQPFLLRRVKAEVATELPKKTEVVIYHGMSALQKKYYKAILMKDLDAFENETAKKVKLQNILSQLRKCVDHPYLFDGVEPEPFEVGDHLTEASGKLHLLDKLLAFLYSGGHRVLLFSQMTQMLDILQDYMDYRGYSYERVDGSVRGEERHLAIKNFGQQPIFVFLLSTRAGGVGMNLTAADTVIFVDSDFNPQNDLQAAARAHRIGQNKSVKVIRLIGRDTVEEIVYRKAASKLQLTNMIIEGGHFTLGAQKPAADADLQLSEILKFGLDKLLASEGSTMDEIDLESILGETKDGQWVSDALPAAEGGSRDQEEGKNHMYLFEGKDYSKEPSKEDRKSFEQLVNLQKTLLEKASQEGRSLRNKGSVLIPGLVEGSTKRKRVLSPEELEDRQKKRQEAAAKRRRLIEEKKRQKEEAEHKKKMAWWESNNYQSFCLPSEESEPEDLENGEESSAELDYQDPDATSLKYVSGDVTHPQAGAEDALIVHCVDDSGHWGRGGLFTALEKRSAEPRKIYELAGKMKDLSLGGVLLFPVDDKESRNKGQDLLALIVAQHRDRSNVLSGIKMAALEEGLKKIFLAAKKKKASVHLPRIGHATKGFNWYGTERLIRKHLAARGIPTYIYYFPRSKSAVLHSQSSSSSSRQLVP

Variants of: B1
Conditions: with parp1_human PARP1, P09874
Chain of parp1_human PARP1, P09874 (P09874 whole entry): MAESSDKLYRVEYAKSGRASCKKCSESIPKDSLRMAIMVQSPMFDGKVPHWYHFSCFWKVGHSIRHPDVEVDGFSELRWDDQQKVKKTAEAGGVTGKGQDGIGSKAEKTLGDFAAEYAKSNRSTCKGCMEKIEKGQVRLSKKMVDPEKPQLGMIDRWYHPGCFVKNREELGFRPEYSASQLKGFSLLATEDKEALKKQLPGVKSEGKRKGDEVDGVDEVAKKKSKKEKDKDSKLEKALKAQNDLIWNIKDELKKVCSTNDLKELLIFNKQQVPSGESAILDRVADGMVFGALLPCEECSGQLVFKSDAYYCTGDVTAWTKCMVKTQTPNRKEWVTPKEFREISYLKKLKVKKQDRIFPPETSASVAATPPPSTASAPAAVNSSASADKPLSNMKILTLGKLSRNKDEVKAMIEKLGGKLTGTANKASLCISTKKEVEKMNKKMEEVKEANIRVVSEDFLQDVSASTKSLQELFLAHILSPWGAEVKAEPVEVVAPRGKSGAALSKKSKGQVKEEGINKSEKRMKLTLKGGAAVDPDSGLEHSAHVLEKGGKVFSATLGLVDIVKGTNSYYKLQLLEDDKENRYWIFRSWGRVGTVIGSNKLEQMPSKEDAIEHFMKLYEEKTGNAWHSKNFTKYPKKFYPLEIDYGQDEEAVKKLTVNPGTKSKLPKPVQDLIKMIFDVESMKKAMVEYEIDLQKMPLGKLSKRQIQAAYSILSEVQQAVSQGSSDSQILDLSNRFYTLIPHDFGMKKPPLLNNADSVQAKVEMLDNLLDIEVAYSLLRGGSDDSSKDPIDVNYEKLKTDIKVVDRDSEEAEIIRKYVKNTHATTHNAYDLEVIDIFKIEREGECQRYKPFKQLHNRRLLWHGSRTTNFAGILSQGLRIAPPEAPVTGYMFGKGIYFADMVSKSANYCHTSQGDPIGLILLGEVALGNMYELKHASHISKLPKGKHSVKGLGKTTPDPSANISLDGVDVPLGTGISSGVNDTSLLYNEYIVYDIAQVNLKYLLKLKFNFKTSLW

effect of a mutation on the interaction | Variant
disrupting interaction | E175Q
disrupting interaction | D723A
